Results reported in article PMC2607524, “The role of conserved residues of chagasin in the inhibition of cysteine peptidases” (Febs Letters, 2008).
Residue numbers refer to the chain shown, from its start. Names may count otherwise.

B1: chagasin ΔT31–T32 (devoid of residues T31 and T32) (natural protein)
chain: MSHKVTKAHNGATLTVAVGELVEIQLPSNPGFAWYFEGGTKESPNESMFTVENKYFPPDSKLLGAGGTEHFHVTVKAAGTHAVNLTYMRPWTGPSHDSERFTVYLKAN
notes: source: E. coli M15/pRep4, purified (Ni metal chelate column, HQ ion exchange)
B2: chagasin (recombinant His-tagged wild type) (natural protein)
chain: MSHKVTKAHNGATLTVAVGELVEIQLPSNPTTGFAWYFEGGTKESPNESMFTVENKYFPPDSKLLGAGGTEHFHVTVKAAGTHAVNLTYMRPWTGPSHDSERFTVYLKAN
notes: also called WT; wild type chagasin; source: E. coli M15/pRep4, purified (Ni metal chelate column, HQ ion exchange)
B3: chagasin T32V (natural protein)
chain: B2 chain with T32V
notes: pQE30 construct as m1; also called pGL1196; source: E. coli M15/pRep4, purified (Ni metal chelate column, HQ ion exchange)
B4: chagasin T31S (natural protein)
chain: B2 chain with T31S
notes: pQE30 construct as m1; also called pGL1299; source: E. coli M15/pRep4, purified (Ni metal chelate column, HQ ion exchange)
B5: chagasin Y89S (natural protein)
chain: B2 chain with Y89S
notes: pQE30 construct as m1; also called pGL1120; source: E. coli M15/pRep4, purified (Ni metal chelate column, HQ ion exchange)
B6: chagasin T31V (natural protein)
chain: B2 chain with T31V
notes: pQE30 construct as m1; also called pGL1298; source: E. coli M15/pRep4, purified (Ni metal chelate column, HQ ion exchange)
B7: chagasin P30A (natural protein)
chain: B2 chain with P30A
notes: pQE30 construct as m1; also called pGL1194; source: E. coli M15/pRep4, purified (Ni metal chelate column, HQ ion exchange)
B8: chagasin T32E (natural protein)
chain: B2 chain with T32E
notes: pQE30 construct as m1; also called pGL1197; source: E. coli M15/pRep4, purified (Ni metal chelate column, HQ ion exchange)
B9: chagasin T31Y (natural protein)
chain: B2 chain with T31Y
notes: pQE30 construct as m1; also called pGL1210; source: E. coli M15/pRep4, purified (Ni metal chelate column, HQ ion exchange)
B10: chagasin T32S (natural protein)
chain: B2 chain with T32S
notes: pQE30 construct as m1; also called pGL1195; source: E. coli M15/pRep4, purified (Ni metal chelate column, HQ ion exchange)
B11: chagasin T32A (natural protein)
chain: B2 chain with T32A
notes: pQE30 construct as m1; also called pGL1211; source: E. coli M15/pRep4, purified (Ni metal chelate column, HQ ion exchange)
B12: chagasin T31A (natural protein)
chain: B2 chain with T31A
notes: pQE30 construct as m1; also called pGL1209; source: E. coli M15/pRep4, purified (Ni metal chelate column, HQ ion exchange)
B13: chagasin T31A/T32A double mutant (natural protein)
chain: B2 chain with T31A, T32A
notes: pQE30 construct as m1; also called pGL1258; source: E. coli M15/pRep4, purified (Ni metal chelate column, HQ ion exchange)
B14: chagasin W93A (natural protein)
chain: B2 chain with W93A
notes: pQE30 construct as m1; also called pGL1199; source: E. coli M15/pRep4, purified (Ni metal chelate column, HQ ion exchange)
B15: chagasin Y89F (natural protein)
chain: B2 chain with Y89F
notes: pQE30 construct as m1; also called pGL1119; source: E. coli M15/pRep4, purified (Ni metal chelate column, HQ ion exchange)
B16: chagasin T32Y (natural protein)
chain: B2 chain with T32Y
notes: pQE30 construct as m1; also called pGL1198; source: E. coli M15/pRep4, purified (Ni metal chelate column, HQ ion exchange)

Tests used:
[1] = target: human cathepsin L (human); test: enzyme inhibition kinetics (Ki for tight-binding inhibitors); peptidase incubated with different chagasin concentrations for 15 min at room temperature, residual hydrolysis of 5 μM Z-Phe-Arg-MCA; Ki from Kiapp with KM 1.5, 2.5 and 60 μM for cruzipain, cathepsin L and papain; methods: RB buffer (50 mM Na2PO4, pH 6.5, 200 mM NaCl, 5 mM EDTA, 2.5 mM DTT), 25 °C; footnote of Table 2: 50 mM Na2HPO4, 100 mM NaCl, 5 mM EDTA, pH 6.5, 5% DMSO, 2.5 mM DTT, 28 °C
[2] = target: T1, cruzipain (Trypanosoma cruzi, UniProt P25779 123-467); test: enzyme inhibition kinetics (Ki for tight-binding inhibitors); peptidase incubated with different chagasin concentrations for 15 min at room temperature, residual hydrolysis of 5 μM Z-Phe-Arg-MCA; Ki from Kiapp with KM 1.5, 2.5 and 60 μM for cruzipain, cathepsin L and papain; methods: RB buffer (50 mM Na2PO4, pH 6.5, 200 mM NaCl, 5 mM EDTA, 2.5 mM DTT), 25 °C; footnote of Table 2: 50 mM Na2HPO4, 100 mM NaCl, 5 mM …; details: both partners purified
T1 construct: also called T. cruzi CP cruzipain; major cysteine peptidase of T. cruzi

[3] = target: T2, papain (UniProt P00784 134-345); test: as above; details: both partners purified
T2 construct: source: bought: Sigma
T2 sequence (looked up): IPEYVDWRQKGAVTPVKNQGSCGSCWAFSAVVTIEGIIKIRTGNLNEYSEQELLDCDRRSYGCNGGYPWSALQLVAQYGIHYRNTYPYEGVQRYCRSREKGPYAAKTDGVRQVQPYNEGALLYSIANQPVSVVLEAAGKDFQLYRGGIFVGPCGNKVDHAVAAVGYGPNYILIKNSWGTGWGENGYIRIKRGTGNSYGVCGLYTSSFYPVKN

Row | Molecule | Ki [1] [nM] | Ki [2] [nM] | also measured
1 | chagasin T31A/T32A double mutant (from UniProt Q966X9 1-110) (natural protein) | 0.0018 |  | 
2 | chagasin T31V (from UniProt Q966X9 1-110) (natural protein) | 0.0097 |  | 
3 | chagasin T31Y (from UniProt Q966X9 1-110) (natural protein) | 0.0068 |  | 
4 | chagasin ΔT31–T32 (devoid of residues T31 and T32) (from UniProt Q966X9 1-110) (natural protein) | 2.2 |  | 
5 | chagasin T31A (from UniProt Q966X9 1-110) (natural protein) | 0.0039 |  | 
6 | chagasin T32S (from UniProt Q966X9 1-110) (natural protein) | 0.032 |  | 
7 | chagasin T32V (from UniProt Q966X9 1-110) (natural protein) | 0.02 |  | 
8 | chagasin T31S (from UniProt Q966X9 1-110) (natural protein) | 0.0049 |  | 
9 | chagasin T32A (from UniProt Q966X9 1-110) (natural protein) | 0.014 |  | 
10 | chagasin T32Y (from UniProt Q966X9 1-110) (natural protein) | 0.0027 |  | 
11 | chagasin W93A (from UniProt Q966X9 1-110) (natural protein) | 0.825 |  | 
12 | chagasin P30A (from UniProt Q966X9 1-110) (natural protein) | 0.045 |  | 
13 | B1 |  | 5.87 | 
14 | B2 | 0.0073 | 0.0076 | Ki [3]: 0.005 ± 0.0007 nM
15 | B3 |  | 0.193 | 
16 | B4 |  | 0.011 | 
17 | B5 |  | 0.025 | Ki [3]: 0.316 ± 0.017 nM
18 | B6 |  | 0.07 | 
19 | B7 |  | 0.02 | 
20 | B8 |  | 0.011 | 
21 | B9 |  | 0.747 | 
22 | B10 |  | 0.02 | 
23 | B11 |  | 0.016 | 
24 | B12 |  | 0.317 | 
25 | B13 |  | 1.06 | Ki [3]: 0.027 ± 0.0015 nM
26 | B14 |  | 0.031 | 
27 | B15 |  | 0.02 | binding result [3]: binds
28 | B16 |  | 0.016 | 
